T1: HMMW micropeptide (recombinant, purified from Escherichia coli BL21) (human)
T1 construct: also called purified HMMW micropeptide; human HMMW micropeptide
T1 peptide: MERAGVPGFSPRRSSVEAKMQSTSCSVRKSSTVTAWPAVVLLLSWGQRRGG


Columns and labels:
[1] = target: T1, HMMW micropeptide (recombinant, …); assay: indirect ELISA, HMMW micropeptide coated at 1 ug/ml, antibody dilution 1:6.25K
Procedure: (§1) The antigen coating concentration of the HMMW micropeptide was 1 μg/ml and 5% milk PBS-T was used for sealing. The dilution multiples of eight antibodies were: 1: 3.125 K/6.25 K/12.5 K/25 K/5O K/100 K. The primary antibodies were incubated at 37° C. for 1 h and the secondary antibodies were incubated at 37° C. for 45 min. A color developing solution was added, reaction was performed at 37° C. for 15 min, the reaction was terminated, and the value was read. It can be seen from Table 2 below that the titers of the eight antibodies all reached 1: 100 K, meeting the requirements for subsequent antigen detection.

[2] = target: T1, HMMW micropeptide (recombinant, …); assay: indirect ELISA, HMMW micropeptide coated at 1 ug/ml, antibody dilution 1:12.5K
Procedure: as §1

[3] = target: T1, HMMW micropeptide (recombinant, …); assay: indirect ELISA, HMMW micropeptide coated at 1 ug/ml, antibody dilution 1:25K
Procedure: as §1

[4] = target: T1, HMMW micropeptide (recombinant, …); assay: indirect ELISA, HMMW micropeptide coated at 1 ug/ml
Procedure: as §1

[5] = target: T1, HMMW micropeptide (recombinant, …); assay: indirect ELISA, HMMW micropeptide coated at 1 ug/ml, antibody dilution 1:100K
Procedure: as §1

[6] = target: T1, HMMW micropeptide (recombinant, …); assay: indirect ELISA, HMMW micropeptide coated at 1 ug/ml, antibody dilution 1:3.125K
Procedure: as §1

[7] = target: T1, HMMW micropeptide (recombinant, …); assay: indirect ELISA, HMMW micropeptide coated at 1 ug/ml, antibody dilution 1:50K
Procedure: as §1

| Binder | ELISA reading at antibody dilution 1:6.25K [1] | ELISA reading at antibody dilution 1:12.5K [2] | ELISA reading at antibody dilution 1:25K [3] | titer [4] | ELISA reading at antibody dilution 1:100K [5] | ELISA reading at antibody dilution 1:3.125K [6] | ELISA reading at antibody dilution 1:50K [7] |
| --- | --- | --- | --- | --- | --- | --- | --- |
| Anti-HMMW antibody-1 (antibody, V domains shown, Mouse monoclonal antibody from a BALB/c x SP2/0 hybridoma; also called anti-HMMW-1 antibody) VH: EVKLEESGGGLVQPGGSMKFSCVASGFTFSNYWMNWVRQSPERGLEWVAEIKLKSNNYATLYAESVKGRFTISRDDSKSSVYLQVNNLRAEDTGIYYCITEIFDYWGQGTTLTVSS VL: QAVVTQESALTTSPGETVTLTCRSSTGAVTTSNYATWVQEKPDHLFTGLIVGANNRAPGVPARFSGSLIGDKAALTITGAQTEDEAIYFCALWFLNHWVFGGGTKLTVLG | 2.59 | 2.38 | 2.13 | ≥ 100000 dilution (1:x) | 1.14 | 2.85 | 1.85 |
| Anti-HMMW antibody-2 (antibody, V domains shown, Mouse monoclonal antibody from a BALB/c x SP2/0 hybridoma; also called anti-HMMW-2 antibody) VH: EVKLEESGGGLVQPGGSMKVSCVGSGFTFSNYWMNWVRQSPEKGLEWVAEIRLKSNNYATHYAESVKGRFTISRDDSKRSVYLQMNNLRVEDTGIYYCTTEAVDYWGQGTSVTVSS VL: DIVMTQAAFSNPVTLGTSASISCRSSKSLLHSNGITYLYWYLQKPGQSPQLLIYQMSNLASGVPDRFSSSGSGTDFTLRISRVEAEDVGVYYCAQNLELPTFGGGTKLEIKR | 3.35 | 3.23 | 3.19 | ≥ 100000 dilution (1:x) | 2.73 | 3.33 | 2.94 |
| Anti-HMMW antibody-3 (antibody, V domains shown, Mouse monoclonal antibody from a BALB/c x SP2/0 hybridoma; also called anti-HMMW-3 antibody) VH: EVKLEESGGGLVQPGGSMKLSCVASGFTFSDYWMNWVRQSPEKGLEWLTEIRLKSDNYATHYAESVKGKFTISRDDSKSTVYLQMNNLRAEDTGIYYCSVETMDFWGQGTSVTVSS VL: QAVVTQESALTTSPGETVTLTCRSSIGAVTTNNYANWVQEKPDRLFTGLIRGTNNRVPGVPARFSGSLIGDKAALTITGAQTEDEAIYFCALWYSNHWVFGGGTKLTVL | 3.4 | 3.22 | 3.04 | ≥ 100000 dilution (1:x) | 2.54 | 3.57 | 2.92 |
| Anti-HMMW antibody-4 (antibody, V domains shown, Mouse monoclonal antibody from a BALB/c x SP2/0 hybridoma; also called anti-HMMW-4 antibody) VH: EVKLEESGGGLVQPGGSMKLSCVASGFTFSDYWMNWVRQSPEKGLEWLTEIRLKSNNYLTHYAESVKGRFTISRDDSKSSVYLQMNNLRAEDTGIYYCSVETMDYWGQGISVTVSS VL: QAVVTQESALTTSSGETVTLTCRSSTGAVTTSNYANWVQEKPDHLFTGLIRGTNNRAPGVPARFSGSLIGDKAALTITGAQTEDEAIYFCALWYSNHWVFGGGTKLTVL | 3.45 | 3.35 | 3.13 | ≥ 100000 dilution (1:x) | 2.57 | 3.52 | 2.81 |
| Anti-HMMW antibody-5 (antibody, V domains shown, Mouse monoclonal antibody from a BALB/c x SP2/0 hybridoma; also called anti-HMMW-5 antibody) VH: EVKLEESGGGLVQPGGSMKLSCVVSGFTFSNYWMNWVRQSPERGLEWVAEIKLKSNNYATLYAASVKGRFTISRDDSKSSVYLQVNNLRTEDTGIYYCITEIFDYWGQGTTLTVSS VL: QTVVTQESALTTSPGETVTLTCRSSTGSVTTSNYATWVQEKPDHLFTGLIVGANNRAPGVPARFSGSLIGDKAALTITGAQTEDEAIYFCALWFIDHWVFGGGTKLTVL | 2.81 | 2.56 | 2.48 | ≥ 100000 dilution (1:x) | 2 | 2.92 | 2.31 |
| Anti-HMMW antibody-6 (antibody, V domains shown, Mouse monoclonal antibody from a BALB/c x SP2/0 hybridoma; also called anti-HMMW-6 antibody) VH: EVKLEESGGGLVQPGGSMKLSCVASGFTFSNYWMNWVRQSPEKGLEWVAEIRLKSNNYATHYAESVTGRFTISRDDSKSSVYLQMNNLRAEDTGIYYCTLEAVDYWGQGTSVTVSS VL: DIVMTQAAFSNPVTLGTSASISCRSSKSLLHSDGITYLYWFLQKPGQSPQLLIYQMSNLASGVPDRFSSSGSGTDFTLRISRVEAEDVGVYYCAQNLELPTFGGGTKLEIK | 3.19 | 2.96 | 2.55 | ≥ 100000 dilution (1:x) | 2.16 | 3.37 | 2.2 |
| Anti-HMMW antibody-7 (antibody, V domains shown, Mouse monoclonal antibody from a BALB/c x SP2/0 hybridoma; also called anti-HMMW-7 antibody) VH: EVKLEESGGGLVQPGGSKKLSCFASGFTFSNYWMNWVRQSPEKGLEWVAEIQLKSNNYATHYAESVKGRFTISRDDSKSSVYLQMNNLRAEDTGIYYCTTEIFDFWGQGTTLTVSS VL: not shown | 2.26 | 2.27 | 2.15 | ≥ 100000 dilution (1:x) | 1.7 | 2.4 | 2.14 |
| Anti-HMMW antibody-8 (antibody, V domains shown, Mouse monoclonal antibody from a BALB/c x SP2/0 hybridoma; also called anti-HMMW-8 antibody) VH: EVKLEESGGGLVQPGGSMKVSCVASGFTFSNYWMNWVRQSPEKGLEWVAEIKLKSDIDATNYAESVKGRFTISRDDSKSSVSLQMNNLRAEDTGIYYCSTEIFDYWGQGTTLTVSS VL: not shown | 3.16 | 3.11 | 2.97 | ≥ 100000 dilution (1:x) | 2.79 | 3.45 | 2.96 |
